We go through 17 sequences from the DeepSol protein solubility set.

A short description of this data set: soluble on expression in E. coli; label from the status in PepcDB or PDB records.
For “MNILLTSATGYLGRAIAAAIQSKGHRVTALARSAATAQRLEAAGIQPCRGDLTDAVALQQAAAQADAVIHTAATNDAAMGLVDRQAVKTLLAAIAGTQKPFLYTSGLWVMGNTGATVADETFPLNPPALVAWRPAVEALVLSAADQGVRSIVIRPALVYGRGGGLLPMLMQAGQSQGAVPVIGAGDNAWSFIHIDDLAALYVAAIEQAPARTLLIGASGESVSMQQVALTIAKTLGLGDRLQHLTLEEARAIWGDLADALTLDQRVSGDRARQLLHWQPVAPGVFQELTQGSYATKAIAALEHHHHHH”, the “soluble on expression in E. coli” value was “not soluble”.
Under “MIYLKSFERNIRLINMKVVYDDVRVLKDIIQALARLVDEAVLKFKQDSVELVALDRAHISLISVNLPREMFKEYDVNDEFKFGFNTQYLMKILKVAKRKEAIEIASESPDSVIINIIGSTNREFNVRNLEVSEQEIPEINLQFDISATISSDGFKSAISEVSTVTDNVVVEGHEDRILIKAEGESEVEVEFSKDTGGLQDLEFSKESKNSYSAEYLDDVLSLTKLSDYVKISFGNQKPLQLFFNMEGGGKVTYLLAPKV” stands “soluble”.
On to “PEHIRQMAQAVEGVTPRALPDLPVACRLSGLEPLTIEKETLFINVGERTNVTGSARFKRLIKEEQYDEALEVARQQVENGAQIIDINMDEGMLDAQACMVRFLNLCASEPEISKVPIMVDSSKWEVIEAGLKCIQGKGIVNSISLKEGKEKFVEQAKLIRRYGAAVIVMAFDEVGQAETRTRKLEICTNAYRILVDEVGFPPEDIIFDPNIFAVATGIDEHNNYAVDFIEAVADIKRDLPHAMISGGVSNVSFSFRGNNYVREAIHAVFLYHCFKNGMDMGIVNAGQLEIYDNVPEKLREAVEDVVLNRRDDATERLLDIAAEYADKGVGKEEDASAL”, for which the “soluble on expression in E. coli” value is “not soluble”.
For the sequence “MKANRVNIKQAITEGETSLGIEFGSTRIKAVLIDSSFETIASGSYEWENLLEDGFWTYNLVDIITGLRTAYSEMKNEVERNYGITIRKIGSIGISAMMHGYMAFDKTGELLVPFRTWRNSTTGAAAKELTDQFQFNIPERWSIAHLYQAILNEEKHLPRIDYITTLAGYIHWLLTGNKAIGIGDASGMFPIDESTQNYNESMVKQFDELISNKGYPWKLKDILPKVYISGEQAGELTEIGAKILDQSKNLQPGIPICPPEGDAGTGMVATNSVRKRTGNISVGTSVFAMIVLEKELSKVYPEIDLVTTPNGSPVGMVHANNCSSDINAWLGLFREFFEAMGQKIETNKLFEVMLNKALEADSDGGGLLSYGYFSGENITGLEKGRPLFVRSPESRFNLANFMRTHLFTAFAALKIGMDILTKEEKIEIDSILAHGGLFKTPLVGQKIVAAAMNTPVSVMETAGEGGAWGMAILASYMMNKGQEESLEDFLDKKVFEEDAGQEIYPDQLDVEGFEAFIERYKKGLMIEQAAVDHLILEHHHHHH”, the “soluble on expression in E. coli” value is “soluble”.
Consider “MGSDKIHHHHHHMKATKRIAEATQESLHRIFTIAEAPDSTLGRLEQEMSQNLVGFLNNHIVASKNALTDIEQDFINARIPEQPEFVSDHMHHLLDKLVAQSVHTSSPSFIGHMTSALPSFILPLSKLMVGLNQNLVKVETSKAFTPLERQVLGMMHNLVYQHDDVFYKNWMHSAEHSLGAFCSGGTVANITALWVARNKLLKADGDFRGVAREGLHRAMRHYGYQDLAILVSDRGHYSLKKSADILGIGQENVIAIPTDEHNKIDCQKLADKCQQLAAQNIKVLAIVGVAGTTETGNIDPLDKIAEIAQQNQCHFHVDAAWGGATLLSNKYRPLLKGIEQADSVTIDAHKQMYVPMGAGLVIFKDPASVSAIEHHAEYILRKGSKDLGSHTLEGSRPGMAMLVYSSLHIISRPGYEMLINQAIEKAEYFADIIHQHDDFELITRPELCLLTYRYAPKSVQALLARNDDEANKSVNMLLGKLTKFIQKRQREDGRSFVSRTRIEVSRYGGEKVIVFRVVLANPLTTKEILQGILQEQCQLAQESEQFLPELLQAAK”, for which the “soluble on expression in E. coli” value is on record as “not soluble”.
“MSERRIDVNRSNYSVIDNEFGNMRDRFEQEMRRVEEEMKRLRSEFEGYRPNGGPPAAISNQPYNAYSNTSSHHETSNRTGGFGSPLPPPSFHGPSDLMAHRPTYDPYLDNLKSPLIKDESDGKTLRLRFDVANYKPEEVTVKTIDNRLLVHAKHEEKTPQRTVFREYNQEFLLPRGTNPEQISSTLSTDGVLTVEAPLPQLAIQQ”: the “soluble on expression in E. coli” value is reported as “not soluble”.
Turning to “MSLSRTIEDRAAEFAIQPSYHALGGEFVRAPVETLREMLGAFGISLDGPPPDRAPPEMRAPDGYRCFLPEGEMRRWGIAAQLYQLRSERNWGIGDFADLCDLARIGGAAGADFIGLNPLHALFLANPAHTSPFSPSNRRFLNPLYIAVDRVPGYRPEFAPEGLGQLRAPDLVDYPAVAAAKLGALRRLWREGPDDAMGFMRFCAEGGELLRRHALFEAISGQMVADGYGAGWLGWPVEFHDAEGQAVIDFADARGDEVGFHLWLQWIADRQLEEARDACRAAGMKIGLYLDFAVGEVPDGSSTWSDPSLAVPGLRIGASPDWFNAQGQDWGLAPLSPVKLADLRAAPFGALMQDATRRAGALRIDHAMGVWQLFLIPDGMGAPQGTYVRYPIEDMLRALAEASCRNRTIVIGEDLGNVPDGFRELMARMNILSYRILLFERHDHGYIAPEHYPREALVCLSTHDLPTFRGWWRGDDVAIRRDFRLISDEAARQQGDFRWTERRQLLEDLARAGLMAWDEIDRIGPDDPPEALVVAVHRHLARAPSRLFAVRIEDMAGEVAPVNVPSTVDEHPNWRRRLGVPLEALGETALFRGIAGALEAEREGHHHHHH”, the “soluble on expression in E. coli” value is “soluble”.
For the sequence “AHHHHHHGSPCYNLKNKVAIVTGGGQGIGAAIAQLFAENGAKVVLAEIDEEAGLEREAMLRERGLDVTFIKTDVADEESVKNMVKKTVELYGGVDILVNNAAIMSVKSIFERTLEEWERVIRVNLTGPYICSRYAAEEMIKRGGGVIINIASTRALMSEPDTEPYSASKGGLLALTHSLAISLAKYRIRVVAVSPGWIETSRWKKSKLRSEPKLRPIDHEQHPAGRVGDPMDIAHICAFLADNEKAGFITGVNFVVDGGMTVKMIYAD”, the “soluble on expression in E. coli” value is recorded as “not soluble”.
In the case of “MAHHHHHHMADTEAVAGTEAIPPTQNEQHDSAAKKKQANSYYYWHNHEKERAKVGDVAPMPKPVLLKKSDPSVLPASTASYPITKHSWCDGKKNVTVYIDTKLDEKETMVEDTLQVEFGKRRLTVSYIANVQTSKDVATQRRKQLVLCLAKAIKSKESSYKVKDPSGQIVIRLAKAEETSWWELAKKDGKLSDADDSDEENEGKADEGDGAAEEKA”, the “soluble on expression in E. coli” value was “soluble”.
Turning to “MGSDKIHHHHHHAAGSSSSSGSSSPSATLTPKDSQATTVFTTTNPSLTLSKVPNIDFGSNATPNGSTDLSVQAAKVDSDLEVANDGIASGWNVQVMNSAFTDSATNNSLYGAKLSFAAAGVAPANADNASPKPAMSAVSLSGDGQNQLVLSAPVKGGLGIWDTEYALSDFKLSVPAGQLPGSYVSNLTWQLSNAPQ”, the “soluble on expression in E. coli” value is “not soluble”.
“MAHHHHHHMIDPVKRDLTNLFLEKREMAKEEIDPRKDWLKRILLNNNTNDLRMFLKASELKTKEGDYCMTCKSNVKQLLYLHTKKNYCHLCEEIFCAYCVKSIDFMKDEKEKYIKIRLCRNCFIYINELKYIINPNLSVDRKAIDLQNSFNDISNCYTNLCSNVPQLNGLVLLCENNKEFLDSFKSEIKQLEEKIQHDVDFLNIMKKKNNFLSDNTLILNKMGKNLLLYLKIIRNKIIPSSIEVLNKTKELLYKK”: the “soluble on expression in E. coli” value is “not soluble”.
Take “MGSDKIHHHHHHMFKPNYHFFPITGWMNDPNGLIFWKGKYHMFYQYNPRKPEWGNICWGHAVSDDLVHWRHLPVALYPDDETHGVFSGSAVEKDGKMFLVYTYYRDPTHNKGEKETQCVAMSENGLDFVKYDGNPVISKPPEEGTHAFRDPKVNRSNGEWRMVLGSGKDEKIGRVLLYTSDDLFHWKYEGVIFEDETTKEIECPDLVRIGEKDILIYSITSTNSVLFSMGELKEGKLNVEKRGLLDHGTDFYAAQTFFGTDRVVVIGWLQSWLRTGLYPTKREGWNGVMSLPRELYVENNELKVKPVDELLALRKRKVFETAKSGTFLLDVKENSYEIVCEFSGEIELRMGNESEEVVITKSRDELIVDTTRSGVSGGEVRKSTVEDEATNRIRAFLDSCSVEFFFNDSIAFSFRIHPENVYNILSVKSNQVKLEVFELENIWL”: the “soluble on expression in E. coli” value was “not soluble”.
In the case of “MAHHHHHHMARDYDAGYKLLFAMPEMMRDLLREFIRSDWLRALDYSTLERVSGNYVADNMRQRASDMVWRVDAGDPWGHLYVLLEFQSTIDRYMAPRMAAYTALLHQELVRAGQVLPDRRVPAALSIVLYNGDTPWSACTNIRDVVVSLPNGLAACQLHQQHTLLDINRLSEAQLPDDNLAALLFRIERAADYDTVVSLMIECRMRLRHEPKLKLAFAKTFAALLCGQRGSVLTPDQVFQLMEVDMQVVGANLQRFTHKLREEARQEGEARMLQKLLAERFGSLHASVVQRIEIATPEELERWGIQLLRAEVIEDVFRA”, the “soluble on expression in E. coli” value is listed as “soluble”.
Regarding “MGSDKIHHHHHHSCGTNGSKTTSTDITEKKVIVQVPQFDADSAYKYIQAQVDFGPRTPNSKGHVACGDYLAAKLAEHGAKVISQNAELPAYDGTLLKARNIIGSFKPESKKRIALFAHWDTRPWADNDPNEKNHHTPILGANDGASGVGVLLEIARQINQQQPELGIDIIFLDAEDYGAPQFYTGEHREDQWCLGAQYWARTPHVDGYNARFGILLDMVGGKDATFFKEVYSEKYAKGINKKVWKKANDAGYGRYFINEVGGQITDDHLFINRLAGIPTIDIIPNDENCELSSFGPTWHTVNDNMDAIDRSTLKAVGQTVLEVIYNEK”, the “soluble on expression in E. coli” value is “not soluble”.
As to “MAHHHHHHMHIFIYIQYLCFGVNEIIFHKPHKCHFFIYNILEGEKGKKPGFINLSNIMNNHNKYESKGFSASSLNNKSFSMTNDKITCGNEKKEMEGEGILNGSSKVDEEDKNIYNSKNNNNNMNYFNNKKIETKKTLGHKDIFVYVLVAGGDGTVNWVLKEAEYYNINDNNFAIGVIPFGTGNDFAKAFGWKKIDRMLNHSFLFDVLKKIVDQTFKSKVEKHDYWNIHVVLKEQGYFNKINSRTKKKETLLNDDKENLHEMKLCMSNYFSIGIDSRIGRGFERHRQKSAVCNKFIYAVEGFKKVSFKKNTPINLIIDKMINMDNNNDNNDNDNNIDGNDNNNDGNDNNNVIFTTNHNESYPLLKKAMSIICINIPSYSSGNDIWNYTHKIGLILPKNITNDQKEQYQILKKTKQEVGDGILEFVIYQSGVDLGLEFTLKGRAYRVHQGFGPWKLLFKEQKYNVYFQVDGEYYLMSLPDYISIEHYKKINVLKNIL”, the “soluble on expression in E. coli” value was “not soluble”.
With “MSLEQGIAARKAEAESNASTKGESPDYPGQQVIWRLIQEAGESLRDELRTLAFTLHDHPEEAFEEVFATEEITKLLQNHGFEVQSGVYGVKTALETSFETPGYDPAQHPSIAILAEYDALPEIGHACGHNIIAAAGVGAFLAVTNMIKTAEVKGVDHLDFEGRIVLLGTPAEEGHSGKEYMIRNGAFDGIDASIMMHPFGFDLAEHVWVGRRTMTATFHGVSAHASSQPFMGKNALDAASLAYQGFGVLRQQMPPSDRLHAIITEGGNRPSIIPDTATMSLYVRSLLPEALKDISKRVDDVLDGAALMAGVGVEKQWDVHPASLPVRNNHVLARRWAKTQNLRGRTALSEGILPDTLAASTDFGNVSHLVPGIHPMVKISPENVALHTKEFAAYARTEEAIDAAVDAAIGLAQVAVDALADPQMLIDATLEFTNSGDVLKVGDYLAEGHHHHHH”, the “soluble on expression in E. coli” value is “soluble”.
Under “SLAPQPLKKGEKAIDVASVVRQKMPASVKDRDAWAKDLATTFESQGLAPTLENVCSVLAVAQQESNYQADPAVPGLSKIAWQEIDRRAERMHIPAFLVHTALKIKSPNGKSYSERLDSVRTEKQLSAIFDDLISMVPMGQTLFGSLNPVRTGGPMQVSIAFAEQHTKGYPWKMDGTVRQEVFSRRGGLWFGTYHLLNYPASYSAPIYRFADFNAGWYASRNAAFQNAVSKASGVKLALDGDLIRYDSKEPGKTELATRKLAGKLGMSDSEIRRQLEKGDSFSFEETALYKKVYQLAEAKTGKSLPREMLPGIQLESPKITRNLTTAWFAKRVDERRARCMKQ” stands “soluble”.
